Test results taken from PMC5554173.

What was measured:
[1] = spotting on 7H11 OADC plates; settings: glycan lost
[2] = glycan lost

B1: LprG (Rv1411c): LprG T231A (protein)
parent chain: MRTPRRHCRRIAVLAAVSIAATVVAGCSSGSKPSGGPLPDAKPLVEEATAQTKALKSAHMVLTVNGKIPGLSLKTLSGDLTTNPTAATGNVKLTLGGSDIDADFVVFDGILYATLTPNQWSDFGPAADIYDPAQVLNPDTGLANVLANFADAKAEGRDTINGQNTIRISGKVSAQAVNQIAPPFNATQPVPATVWIQETGDHQLAQAQLDRGSGNSVQMTLSKWGEKVQVTKPPVS
other: colony formation on solid medium [1]: no change

B2: LprG (Rv1411c): lprG A691G (T231A) (protein)
parent chain: MRTPRRHCRRIAVLAAVSIAATVVAGCSSGSKPSGGPLPDAKPLVEEATAQTKALKSAHMVLTVNGKIPGLSLKTLSGDLTTNPTAATGNVKLTLGGSDIDADFVVFDGILYATLTPNQWSDFGPAADIYDPAQVLNPDTGLANVLANFADAKAEGRDTINGQNTIRISGKVSAQAVNQIAPPFNATQPVPATVWIQETGDHQLAQAQLDRGSGNSVQMTLSKWGEKVQVTKPPVS
other: invasion and growth in macrophages [2]: no change
